Measured values taken from patent publication US20100273676A1 (GENERAL HOSPITAL, published 2010).
Ends that are not written are not given here. * marks the point of attachment. FITC = O=C1OC2(c3ccc(O)cc3Oc3cc(O)ccc32)c2ccc(NC(=S)*)cc21

Assays:
[1] = biological target: GST (glutathione S-transferase) (UniProt P08515 1-218 = GST); test: fluorescence polarization
[2] = biological target: T1, GST-tagged CgGal11Ap KIX domain (amino acids 1-86) (C. glabrata, UniProt P08515 1-218 = GST); test: fluorescence polarization, salt and pH adjusted
[3] = biological target: T1, GST-tagged CgGal11Ap KIX domain (amino …); test: fluorescence polarization, FITC peptide with increasing GST-CgGal11Ap KIX
[4] = biological target: T1, GST-tagged CgGal11Ap KIX domain (amino …); test: fluorescence anisotropy/polarization, FITC peptide with increasing GST-CgGal11Ap KIX

T1 sequence (P08515 whole entry, the tested form may be a part): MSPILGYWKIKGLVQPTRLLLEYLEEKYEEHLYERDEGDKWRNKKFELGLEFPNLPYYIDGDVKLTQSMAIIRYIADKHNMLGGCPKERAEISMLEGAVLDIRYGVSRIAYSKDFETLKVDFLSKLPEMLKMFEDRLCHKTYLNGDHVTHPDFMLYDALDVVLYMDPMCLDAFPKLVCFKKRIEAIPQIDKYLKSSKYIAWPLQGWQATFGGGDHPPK
GST (glutathione S-transferase), sequence (P08515 whole entry, the tested form may be a part): as above

Binder	binding result [1]	Kd [2]	Kd [3]	Kd [4]
{FITC}-LGTLDEFVNKGDLNELYNSLWGDLFSDVYL (also called FITC-labled-CgPdr1pAD-30; Fluorescein-tagged CgPdr1pAD-30 peptide) [FITC-CgPdr1pAD-30 (FITC-LGTLDEFVNKGDLNELYNSLWGDLFSDVYL)]	no binding	~700 nM	~780 nM	~2000 nM
{FITC}-LYNSLWGDLFSDVYL (also called short Fluorescein-tagged CgPdr1pAD peptide) [Fluorescein-conjugated 15-amino acid CgPdr1pAD peptide (FITC-LYNSLWGDLFSDVYL)]				~210000 nM
